{
  "source": "patent US20120122991A1",
  "about": "“METHOD FOR TREATING CANCER BY INCREASING AMP-ACTIVATED KINASE ACTIVITY” (Dana-Farber Cancer Institute, Inc., priority 2003, published 2012)",
  "data": [
    {"target": "T1, MBP-AMPK (Rattus norvegicus, UniProt P54645)", "T1 construct": "MBP-AMPKa (1-312) bacterial fusion protein", "T1 sequence (P54645 13-323)": "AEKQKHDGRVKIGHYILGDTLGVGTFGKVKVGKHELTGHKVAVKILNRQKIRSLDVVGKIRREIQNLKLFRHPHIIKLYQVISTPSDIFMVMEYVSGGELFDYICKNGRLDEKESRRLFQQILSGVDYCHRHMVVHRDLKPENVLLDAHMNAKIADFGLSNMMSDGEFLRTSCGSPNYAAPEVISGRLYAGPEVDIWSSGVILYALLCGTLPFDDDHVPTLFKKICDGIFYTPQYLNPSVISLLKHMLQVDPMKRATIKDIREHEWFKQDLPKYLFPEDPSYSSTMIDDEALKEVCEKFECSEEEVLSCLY", "test": "AMPK kinase activity on SAMS peptide after in vitro phosphorylation by LKB1", "type": "biochemical", "conditions": "in vitro phosphorylation of bacterial MBP-AMPK, SAMS peptide substrate", "description": "FIG. 2a: Lineup of known LKB1 in vitro phosphorylation sites with sites of phosphorylation in human […] and its yeast homologue SNF1p. AMPKα1 Thr 172 (SEQ ID NO:1); SNF1p S.c. Thr 210 (SEQ ID NO:2); STRAD Thr 329 (SEQ ID NO:3); STRAD Thr 419 (SEQ ID NO:4); LKB1 auto Thr 185 (SEQ ID NO:5). FIG. 2b. HT1080 cells were transfected with wild-type or kinase dead (K78I) LKB1 with or without its coactivating protein STRAD. As indicated, LKB1 immunoprecipitations (IPs) were tested for their ability to transphosphorylate bacterial MBP-AMPKα in an in vitro kinase assay. Parallel in vitro kinase assays were performed using ^32P γ-ATP followed by autoradiography or cold ATP followed by immunoblotting for phospho-Thr172 AMPK and the indicated proteins. Wild-type LKB1 IPs were run in duplicate as shown. MBP-AMPK was also tested alone as indicated. Results are typical of 3 separate experiments. FIG. 2c: LKB1 phosphorylation of MBP-AMPK activates its kinase activity towards a peptide substrate (SAMS). LKB1 immunoprecipitates (as in FIG. 2a) were used to phosphorylate MBP-AMPK in vitro and then MBP-AMPK was removed and tested for its ability to trans-phosphorylate the SAMS peptide in the presence of ^32P γ-ATP. Results were performed in two separate experiments in triplicate. LKB1 alone was incapable of detectably phosphorylating the SAMS peptide, and equivalent levels of LKB1 and MBP-AMPK were used in each reaction (data not shown). Samples without LKB1, without SAMS peptide, or without MBP-AMPK all gave similar levels of background (data not shown).\nKinase Assays and Cellular Analysis: AMPK kinase activity was measured using the SAMS peptide as previously described (7). LKB1 phosphorylation of AMPK was carried out in kinase buffer (50 mM Tris pH 7.5, 10 mM MgCl2, 1 mM DTT, 100 μM ATP) for 20 mins at 30° C. For immunopreciptations of active LKB1 kinase, Flag-tagged LKB1 was co-transfected with an equimolar amount of STRAD expression plasmid into HT1080 cells and immunoprecipitated using M2-agarose (Sigma) 24 h post-transfection in NP40 lysis buffer26. […]", "values": [
      {"molecule": "wild-type LKB1: Flag-tagged wild-type LKB1 serine/threonine kinase immunoprecipitated from HT1080 cells (protein, left off: small tags and cut ends, Flag-tagged wild-type LKB1 serine/threonine kinase immunoprecipitated from HT1080 cells) MEVVDPQQLGMFTEGELMSVGMDTFIHRIDSTEVIYQPRRKRAKLIGKYLMGDLLGEGSYGKVKEVLDSETLCRRAVKILKKKKLRRIPNGEANVKKEIQLLRRLRHKNVIQLVDVLYNEEKQKMYMVMEYCVCGMQEMLDSVPEKRFPVCQAHGYFCQLIDGLEYLHSQGIVHKDIKPGNLLLTTGGTLKISDLGVAEALHPFAADDTCRTSQGSPAFQPPEIANGLDTFSGFKVDIWSAGVTLYNITTGLYPFEGDNIYKLFENIGKGSYAIPGDCGPPLSDLLKGMLEYEPAKRFSIRQIRQHSWFRKKHPPAEAPVPIPPSPDTKDRWRSMTVVPYLEDLHGADEDEDLFDIEDDIIYTQDFTVPGQVPEEEASHNGQRRGLPKAVCMNGTEAAQLSTKSRAEGRAPNPARKACSASSKIRRLSACKQQ", "induced AMPK kinase activity": "27 fold"},
      {"molecule": "Kinase-inactive LKB1: kinase-dead LKB1 mutant, alone or coexpressed with STRAD (protein, left off: small tags and cut ends, kinase-dead LKB1 mutant, alone or coexpressed with STRAD) MEVVDPQQLGMFTEGELMSVGMDTFIHRIDSTEVIYQPRRKRAKLIGKYLMGDLLGEGSYGKVKEVLDSETLCRRAVIILKKKKLRRIPNGEANVKKEIQLLRRLRHKNVIQLVDVLYNEEKQKMYMVMEYCVCGMQEMLDSVPEKRFPVCQAHGYFCQLIDGLEYLHSQGIVHKDIKPGNLLLTTGGTLKISDLGVAEALHPFAADDTCRTSQGSPAFQPPEIANGLDTFSGFKVDIWSAGVTLYNITTGLYPFEGDNIYKLFENIGKGSYAIPGDCGPPLSDLLKGMLEYEPAKRFSIRQIRQHSWFRKKHPPAEAPVPIPPSPDTKDRWRSMTVVPYLEDLHGADEDEDLFDIEDDIIYTQDFTVPGQVPEEEASHNGQRRGLPKAVCMNGTEAAQLSTKSRAEGRAPNPARKACSASSKIRRLSACKQQ", "induced AMPK kinase activity": "unable to activate AMPK"},
      {"molecule": "STRAD-activated LKB1: wild-type LKB1 co-expressed with its coactivating protein STRAD, immunoprecipitated (protein, left off: small tags and cut ends) chain 1: MEVVDPQQLGMFTEGELMSVGMDTFIHRIDSTEVIYQPRRKRAKLIGKYLMGDLLGEGSYGKVKEVLDSETLCRRAVKILKKKKLRRIPNGEANVKKEIQLLRRLRHKNVIQLVDVLYNEEKQKMYMVMEYCVCGMQEMLDSVPEKRFPVCQAHGYFCQLIDGLEYLHSQGIVHKDIKPGNLLLTTGGTLKISDLGVAEALHPFAADDTCRTSQGSPAFQPPEIANGLDTFSGFKVDIWSAGVTLYNITTGLYPFEGDNIYKLFENIGKGSYAIPGDCGPPLSDLLKGMLEYEPAKRFSIRQIRQHSWFRKKHPPAEAPVPIPPSPDTKDRWRSMTVVPYLEDLHGADEDEDLFDIEDDIIYTQDFTVPGQVPEEEASHNGQRRGLPKAVCMNGTEAAQLSTKSRAEGRAPNPARKACSASSKIRRLSACKQQ chain 2: MSFLVSKPERIRRWVSEKFIVEGLRDLELFGEQPPGDTRRKTNDASSESIASFSKQEVMSSFLPEGGCYELLTVIGKGFEDLMTVNLARYKPTGEYVTVRRINLEACSNEMVTFLQGELHVSKLFNHPNIVPYRATFIADNELWVVTSFMAYGSAKDLICTHFMDGMNELAIAYILQGVLKALDYIHHMGYVHRSVKASHILISVDGKVYLSGLRSNLSMISHGQRQRVVHDFPKYSVKVLPWLSPEVLQQNLQGYDAKSDIYSVGITACELANGHVPFKDMPATQMLLEKLNGTVPCLLDTSTIPAEELTMSPSRSVANSGLSDSLTTSTPRPSNGDSPSHPYHRTFSPHFHHFVEQCLQRNPDARPSASTLLNHSFFKQIKRRASEALPELLRPVTPITNFEGSQSQDHSGIFGLVTNLEELEVDDWEF", "induced AMPK kinase activity": "50 fold"}
    ]}
  ]
}
